Assay results published in patent US10766960 (dated 2020).
Numbering of substitutions follows the chain as printed. Read-outs that look alike come from different tables or passages of the source. Blank lines part the entries; values can stand above or below the binder they belong to.

Tests used:
Assay in all cases: SPR
[1] = biological target: T1, FcgRIIa H (human, UniProt P12318)
T1 chain: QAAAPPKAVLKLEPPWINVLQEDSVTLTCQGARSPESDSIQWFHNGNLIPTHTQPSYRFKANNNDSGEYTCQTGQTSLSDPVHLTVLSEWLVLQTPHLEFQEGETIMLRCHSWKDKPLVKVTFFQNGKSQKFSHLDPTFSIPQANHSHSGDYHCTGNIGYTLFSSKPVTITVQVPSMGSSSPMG

[2] = biological target: T2, FcgRIIa R (human, UniProt P12318)
T2 chain: T1 chain with H134R

[3] = biological target: T3, FcgRIIIa V (human, UniProt P08637)
[4] = biological target: T4, FcgRIIb (human, UniProt P31994)
T4 chain: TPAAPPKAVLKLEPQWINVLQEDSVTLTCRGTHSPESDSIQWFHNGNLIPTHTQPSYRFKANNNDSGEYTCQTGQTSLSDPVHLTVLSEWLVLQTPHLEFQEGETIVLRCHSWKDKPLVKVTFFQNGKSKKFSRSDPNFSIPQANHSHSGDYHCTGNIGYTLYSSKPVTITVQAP

[5] = biological target: T5, FcgRIIIa F (human, UniProt P08637)
[6] = biological target: T6, FcgRIa (human, UniProt P12314)
T6 chain: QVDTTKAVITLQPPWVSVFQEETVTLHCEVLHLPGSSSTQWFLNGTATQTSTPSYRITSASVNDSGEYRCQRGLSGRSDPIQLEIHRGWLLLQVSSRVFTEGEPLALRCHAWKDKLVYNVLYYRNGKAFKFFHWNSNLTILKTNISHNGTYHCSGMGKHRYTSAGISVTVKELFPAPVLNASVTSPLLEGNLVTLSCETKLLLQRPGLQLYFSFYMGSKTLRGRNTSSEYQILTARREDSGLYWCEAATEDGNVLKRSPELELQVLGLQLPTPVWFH

[7] = biological target: T4, FcgRIIb
[8] = biological target: T6, FcgRIa
[9] = biological target: T2, FcgRIIa R
[10] = biological target: T3, FcgRIIIa V; remark: listed apart in the source
[11] = biological target: T5, FcgRIIIa F; remark: listed apart in the source
[12] = biological target: T1, FcgRIIa H
[13] = biological target: T4, FcgRIIb
[14] = biological target: T1, FcgRIIa H
[15] = biological target: T6, FcgRIa
[16] = biological target: T4, FcgRIIb
[17] = biological target: T2, FcgRIIa R
[18] = biological target: T3, FcgRIIIa V; remark: listed apart in the source
[19] = biological target: T5, FcgRIIIa F; remark: listed apart in the source
[20] = biological target: T6, FcgRIa
[21] = biological target: T3, FcgRIIIa V; remark: listed apart in the source
[22] = biological target: T2, FcgRIIa R
[23] = biological target: T4, FcgRIIb
[24] = biological target: T5, FcgRIIIa F; remark: listed apart in the source
[25] = biological target: T1, FcgRIIa H

T3 sequence (P08637 17-208 F176V): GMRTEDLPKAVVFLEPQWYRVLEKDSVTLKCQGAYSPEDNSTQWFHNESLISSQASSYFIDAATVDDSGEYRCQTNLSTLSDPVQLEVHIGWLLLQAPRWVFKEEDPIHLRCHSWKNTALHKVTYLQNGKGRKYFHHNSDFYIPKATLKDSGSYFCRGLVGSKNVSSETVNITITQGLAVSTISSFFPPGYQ
T5 sequence (P08637 17-208): as the sequence (P08637 17-208 F176V) above, with V160F counted along it

B2: H240-Kn032/H240-Hl032/L73-k0 (antibody)
chain 1: QDQLVQSGAEVKKPGASVKVSCKASGFNIKDTYIQWVRQAPGQGLEWMGRIDPLRKQTKYREKFEGRVTITADTSTNTAYMELSSLRSEDTAVYYCVRSGREFDYWGQGTLVTVSSASTKGPSVFPLAPSSKSTSGGTAALGCLVKDYFPEPVTVSWNSGALTSGVHTFPAVLQSSGLYSLSSVVTVPSSSLGTQTYICNVNHKPSNTKVDKKVEPKSCDKTHTCPPCPAPELLGGPDVFLFPPKPKDTLMISRTPEVTCVVVDVSHEDPEVKFNWYVDGVEVHNAKTKPREEQYNSTYRVVSVLTVLHQDWLNGKEYKCKVSNKALPLPEEKTISKAKGQPREPQVCTLPPSRDELTKNQVSLWCLVKGFYPSDIAVEWESNGQPENNYKTTPPVLDSDGSFFLYSKLTVDKSRWQQGNVFSCSVMHEALHNHYTQKSLSLSP
chain 2: B2 chain 1 with C348Y, D355C, W365S, L367A, Y406V
chain 3: DIQMTQSPSSLSASVGDRVTITCRASQDIHKYIAWYQQKPGQAPRLLIQYTSTLQPGVPSRFSGSGSGTDYTFTISSLQPEDIATYYCLQYEQLRTFGGGTKVEIKRTVAAPSVFIFPPSDEQLKSGTASVVCLLNNFYPREAKVQWKVDNALQSGNSQESVTEQDSKDSTYSLSSTLTLSKADYEKHKVYACEVTHQGLSSPVTKSFNRGEC
Kd [7]: 620 nM
Kd [8]: 0.073 nM
Kd [9]: 340 nM
Kd [10]: 3.1 nM
Kd [11]: 9.1 nM
Kd [12]: 690 nM
Kd [13]: 630 nM

B3: H240-Kn193/H240-Hl204/L73-k0 (antibody)
chain 1: B2 chain 1 with L233Y, L234N, G235W, D238M, H267D, E293R, S297A, A326D, L329A, E331I
chain 2: QDQLVQSGAEVKKPGASVKVSCKASGFNIKDTYIQWVRQAPGQGLEWMGRIDPLRKQTKYREKFEGRVTITADTSTNTAYMELSSLRSEDTAVYYCVRSGREFDYWGQGTLVTVSSASTKGPSVFPLAPSSKSTSGGTAALGCLVKDYFPEPVTVSWNSGALTSGVHTFPAVLQSSGLYSLSSVVTVPSSSLGTQTYICNVNHKPSNTKVDKKVEPKSCDKTHTCPPCPAPELLTGPSVFLFPPKPKDTLMISRTPEVTCVVVDVSHEEPEVKFNWYVDGVEVHNAKTKPREEQYNSTYRVVSVLTVLHQDWLNGKEYKCKVSNDALPKPEEETISKAKGQPREPQVYTLPPSRCELTKNQVSLSCAVKGFYPSDIAVEWESNGQPENNYKTTPPVLDSDGSFFLVSKLTVDKSRWQQGNVFSCSVMHEALHNHYTQKSLSLSP
chain 3: B2 chain 3
Kd [1]: 35 nM
Kd [2]: 16 nM
Kd [3]: 1.8 nM
Kd [4]: 290 nM
Kd [5]: 11 nM
Kd [6]: < 0.024 nM

B5: H240-Kn192/H240-Hl204/L73-k0 (antibody)
chain 1: B2 chain 1 with L233Y, L234N, G235W, D238M, H267D, E293K, S297A, A326D, L329A, E331I
chain 2: B3 chain 2
chain 3: B2 chain 3
Kd [1]: 42 nM
Kd [2]: 19 nM
Kd [3]: 2.2 nM
Kd [4]: 290 nM
Kd [5]: 12 nM
Kd [6]: < 0.019 nM

B7: GpH7-Kn045/GpH7-Hl055/GpL16-k0 (antibody)
chain 1: QVQLVQSGAEVKKPGASVTVSCKASGYTFTDYEMHWIRQPPGEGLEWIGAIDPKTGDTAYSESFQDRVTLTADKSTSTAYMELSSLTSEDTAVYYCTRFYSYTYWGQGTLVTVSSASTKGPSVFPLAPSSKSTSGGTAALGCLVKDYFPEPVTVSWNSGALTSGVHTFPAVLQSSGLYSLSSVVTVPSSSLGTQTYICNVNHKPSNTKVDKKVEPKSCDKTHTCPPCPAPEYYAGPSVFLFPPKPKDTLMISRTPEVTCVVVDVSDEDPEVKFNWYVDGVEVHNAKTKPREEQYNATYRVVSVLTVLHQDWLNGKEYKCKVSNKALPAPIEKTISKAKGQPREPQVCTLPPSRDELTKNQVSLWCLVKGFYPSDIAVEWESNGQPENNYKTTPPVLDSDGSFFLYSKLTVDKSRWQQGNVFSCSVMHEALHNHYTQKSLSLSP
chain 2: QVQLVQSGAEVKKPGASVTVSCKASGYTFTDYEMHWIRQPPGEGLEWIGAIDPKTGDTAYSESFQDRVTLTADKSTSTAYMELSSLTSEDTAVYYCTRFYSYTYWGQGTLVTVSSASTKGPSVFPLAPSSKSTSGGTAALGCLVKDYFPEPVTVSWNSGALTSGVHTFPAVLQSSGLYSLSSVVTVPSSSLGTQTYICNVNHKPSNTKVDKKVEPKSCDKTHTCPPCPAPELLAGPDVFLFPPKPKDTLMISRTPEVTCVVVDVSHEDPEVKFNWYVDGVEVHNAKTKPREELYNSTYRVVSVLTVLHQDWLNGKEYKCKVSNKALPMPEEKTISKAKGQPREPQVYTLPPSRCELTKNQVSLSCAVKGFYPSDIAVEWESNGQPENNYKTTPPVLDSDGSFFLVSKLTVDKSRWQQGNVFSCSVMHEALHNHYTQKSLSLSP
chain 3: DIVMTQSPLSLPVTPGEPASISCQASESLVHSNRNTYLHWYLQKPGQSPQLLIYKVSNRFSGVPDRFSGSGSGTDFTLKISRVEAEDVGVYYCSQNTHVPPTFGQGTKVEIERTVAAPSVFIFPPSDEQLKSGTASVVCLLNNFYPREAKVQWKVDNALQSGNSQESVTEQDSKDSTYSLSSTLTLSKADYEKHKVYACEVTHQGLSSPVTKSFNRGEC
Kd [20]: 0.019 nM
Kd [21]: 0.72 nM
Kd [22]: 13 nM
Kd [23]: 240 nM
Kd [24]: 1.6 nM
Kd [25]: 29 nM

B8: GpH7-Kn033/GpH7-Hl033/GpL16-k0 (antibody)
chain 1: not shown
chain 2: not shown
chain 3: B7 chain 3
Kd [20]: 0.069 nM
Kd [21]: 220 nM
Kd [22]: 740 nM
Kd [23]: 3600 nM
Kd [24]: 1600 nM
Kd [25]: 590 nM

Other lines, results leading:

Kd [1]: 47 nM
Kd [2]: 18 nM
Kd [3]: 18 nM
Kd [4]: 400 nM
Kd [5]: 39 nM
Kd [6]: 0.46 nM
B1: H240-Kn179/H240-Hl089/L73-k0 (antibody)
chain 1: B2 chain 1 with L233Y, L234Y, G235W, D238M, H267D, E293K, S297A, A326D, L329A, E331I
chain 2: B3 chain 2 with E331I
chain 3: B2 chain 3

Kd [1]: 38 nM
Kd [2]: 16 nM
Kd [3]: 14 nM
Kd [4]: 380 nM
Kd [5]: 24 nM
Kd [6]: 0.27 nM
B4: H240-Kn180/H240-Hl089/L73-k0 (antibody)
chain 1: B2 chain 1 with L233Y, L234Y, G235W, D238M, H267D, E293R, S297A, A326D, L329A, E331I
chain 2: B3 chain 2 with E331I
chain 3: B2 chain 3

Kd [7]: 4100 nM
Kd [8]: 0.25 nM
Kd [9]: 1000 nM
Kd [14]: 520 nM
Kd [15]: 0.095 nM
Kd [16]: 3.3 µM
Kd [10]: 390 nM
Kd [11]: 2600 nM
Kd [17]: 740 nM
Kd [18]: 48 nM
Kd [12]: 930 nM
Kd [19]: 290 nM
Kd [13]: 4200 nM
B6: H240-Kn033/H240-Hl033/L73-k0 (antibody)
chain 1: not shown
chain 2: not shown
chain 3: B2 chain 3
